From patent publication US20230365662A1
Values joined by “and” are separate entries in the source; they are usually repeats but may differ in a detail not shown here. Equal entries are not always repeated.

Biological target: HRgpA-6H (Porphyromonas gingivalis) (UniProt P28784)
Assay: ELISA on coated HRgpA-6H

Chain of UniProt P28784 (P28784 228-991 limits assumed): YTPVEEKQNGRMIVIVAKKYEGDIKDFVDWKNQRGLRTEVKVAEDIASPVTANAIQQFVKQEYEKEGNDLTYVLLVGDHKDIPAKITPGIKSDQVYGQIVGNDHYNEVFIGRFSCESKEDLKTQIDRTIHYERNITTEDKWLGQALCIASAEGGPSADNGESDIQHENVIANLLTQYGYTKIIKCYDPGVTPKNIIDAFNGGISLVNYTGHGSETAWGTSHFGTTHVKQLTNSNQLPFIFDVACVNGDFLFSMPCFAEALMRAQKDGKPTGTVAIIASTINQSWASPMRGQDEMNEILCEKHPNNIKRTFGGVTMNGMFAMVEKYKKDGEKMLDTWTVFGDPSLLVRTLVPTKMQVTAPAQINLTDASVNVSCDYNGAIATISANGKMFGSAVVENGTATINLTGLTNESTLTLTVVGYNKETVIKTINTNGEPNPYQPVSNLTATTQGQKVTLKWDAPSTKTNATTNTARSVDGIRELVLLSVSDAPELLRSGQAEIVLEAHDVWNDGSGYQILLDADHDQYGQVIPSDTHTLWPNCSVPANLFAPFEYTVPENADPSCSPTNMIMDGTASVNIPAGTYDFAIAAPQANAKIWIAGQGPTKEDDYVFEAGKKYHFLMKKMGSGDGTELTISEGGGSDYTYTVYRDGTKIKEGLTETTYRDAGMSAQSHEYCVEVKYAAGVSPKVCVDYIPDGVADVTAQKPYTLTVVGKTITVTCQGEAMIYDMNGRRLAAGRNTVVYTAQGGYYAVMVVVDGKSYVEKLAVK

Row | Binder | OD450nm | Ratio OD(Variant)/OD(WT)
1 | KB001 mouse Fab FASEBA VH S28L (Fab, V domains shown) VH: EVQLKQSGPGLVAPSQSLSITCTVSGFLLSIYSVHWVRQPPGKGLEWLGMIWGGGSSDYNSALKSRLSISKDNSKSQVFLKMNSLQTDDTAMYYCARNGNFYAMDYWGQGTSVTVSS VL: QIVLTQSPAIMSASLGERVTMTCTASSSVSSSFLHWYQQKPGSSPQLWIYSTSNLASGVPARFSGSGSGTSYSLTISSMEAEDAATYYCHQYHHSPYIYTFGGGTKLEIK | 0.435 and 0.468 | 0.806 and 0.867
2 | KB001 mouse Fab FASEBA VH S28G (Fab, V domains shown) VH: EVQLKQSGPGLVAPSQSLSITCTVSGFGLSIYSVHWVRQPPGKGLEWLGMIWGGGSSDYNSALKSRLSISKDNSKSQVFLKMNSLQTDDTAMYYCARNGNFYAMDYWGQGTSVTVSS VL: QIVLTQSPAIMSASLGERVTMTCTASSSVSSSFLHWYQQKPGSSPQLWIYSTSNLASGVPARFSGSGSGTSYSLTISSMEAEDAATYYCHQYHHSPYIYTFGGGTKLEIK | 0.468 and 0.486 | 0.867 and 0.9
3 | KB001 mouse Fab FASEBA VH L29T (Fab, V domains shown) VH: EVQLKQSGPGLVAPSQSLSITCTVSGFSTSIYSVHWVRQPPGKGLEWLGMIWGGGSSDYNSALKSRLSISKDNSKSQVFLKMNSLQTDDTAMYYCARNGNFYAMDYWGQGTSVTVSS VL: QIVLTQSPAIMSASLGERVTMTCTASSSVSSSFLHWYQQKPGSSPQLWIYSTSNLASGVPARFSGSGSGTSYSLTISSMEAEDAATYYCHQYHHSPYIYTFGGGTKLEIK | 0.502 and 0.512 and 0.501 | 0.93 and 0.948 and 0.928
4 | KB001 mouse Fab FASEBA VH S28A (Fab, V domains shown) VH: EVQLKQSGPGLVAPSQSLSITCTVSGFALSIYSVHWVRQPPGKGLEWLGMIWGGGSSDYNSALKSRLSISKDNSKSQVFLKMNSLQTDDTAMYYCARNGNFYAMDYWGQGTSVTVSS VL: QIVLTQSPAIMSASLGERVTMTCTASSSVSSSFLHWYQQKPGSSPQLWIYSTSNLASGVPARFSGSGSGTSYSLTISSMEAEDAATYYCHQYHHSPYIYTFGGGTKLEIK | 0.488 | 0.904
5 | KB001 mouse Fab FASEBA VH S28N (Fab, V domains shown) VH: EVQLKQSGPGLVAPSQSLSITCTVSGFNLSIYSVHWVRQPPGKGLEWLGMIWGGGSSDYNSALKSRLSISKDNSKSQVFLKMNSLQTDDTAMYYCARNGNFYAMDYWGQGTSVTVSS VL: QIVLTQSPAIMSASLGERVTMTCTASSSVSSSFLHWYQQKPGSSPQLWIYSTSNLASGVPARFSGSGSGTSYSLTISSMEAEDAATYYCHQYHHSPYIYTFGGGTKLEIK | 0.53 | 0.981
6 | KB001 mouse Fab FASEBA VH S28R (Fab, V domains shown) VH: EVQLKQSGPGLVAPSQSLSITCTVSGFRLSIYSVHWVRQPPGKGLEWLGMIWGGGSSDYNSALKSRLSISKDNSKSQVFLKMNSLQTDDTAMYYCARNGNFYAMDYWGQGTSVTVSS VL: QIVLTQSPAIMSASLGERVTMTCTASSSVSSSFLHWYQQKPGSSPQLWIYSTSNLASGVPARFSGSGSGTSYSLTISSMEAEDAATYYCHQYHHSPYIYTFGGGTKLEIK | 0.458 | 0.848
7 | KB001 mouse Fab FASEBA VH L29P (Fab, V domains shown) VH: EVQLKQSGPGLVAPSQSLSITCTVSGFSPSIYSVHWVRQPPGKGLEWLGMIWGGGSSDYNSALKSRLSISKDNSKSQVFLKMNSLQTDDTAMYYCARNGNFYAMDYWGQGTSVTVSS VL: QIVLTQSPAIMSASLGERVTMTCTASSSVSSSFLHWYQQKPGSSPQLWIYSTSNLASGVPARFSGSGSGTSYSLTISSMEAEDAATYYCHQYHHSPYIYTFGGGTKLEIK | 0.468 | 0.867
8 | KB001 mouse Fab FASEBA VH S28Y (Fab, V domains shown) VH: EVQLKQSGPGLVAPSQSLSITCTVSGFYLSIYSVHWVRQPPGKGLEWLGMIWGGGSSDYNSALKSRLSISKDNSKSQVFLKMNSLQTDDTAMYYCARNGNFYAMDYWGQGTSVTVSS VL: QIVLTQSPAIMSASLGERVTMTCTASSSVSSSFLHWYQQKPGSSPQLWIYSTSNLASGVPARFSGSGSGTSYSLTISSMEAEDAATYYCHQYHHSPYIYTFGGGTKLEIK | 0.437 | 0.809
